Assay results from US5811098, “Antibodies to HER4, human receptor tyrosine kinase” (Bristol-Myers Squibb Company, dated 1998).

B1: HAR-TX β2, chimeric heregulin-toxin protein (other)
chain: MVVKPPQNKTESENTSDKPKRKKKGGKNGKNRRNRSHLIKCAEKEKTFCVNGGECFTVKDLSNPSRYLCKCPNEFTGDRCQNYVMASFYKAEELYKLMAEEGGSLAALTAHQACHLPLETFTRHRQPRGWEQLEQCGYPVQRLVALYLAARLSWNQVDQVIRNALASPGSGGDLGEAIREQPEQARLALTLAAAESERFVRQGTGNDEAGAANADVVSLTCPVAAGECAGPADSGDALLERNYPTGAEFLGDGGDVSFSTRGTQNWTVERLLQAHRQLEERGYVFVGYHGTFLEAAQSIVFGGVRARSQDLDAIWRGFYIAGDPALAYGYAQDQEPDARGRIRNGALLRVYVPRSSLPGFYRTSLTLAGGEAAGEVERLIGHPLPLRLDAITGPEEEGGRLETILGWPLAERTVVIPSAIPTDPRNVGGDLDPSSIPDKEQAISALPDYASQPGKPPREDLK
B2: HER4/p180erbB4 (human prototype HER4) (receptor)
chain: QSVCAGTENKLSSLSDLEQQYRALRKYYENCEVVMGNLEITSIEHNRDLSFLRSVREVTGYVLVALNQFRYLPLENLRIIRGTKLYEDRYALAIFLNYRKDGNFGLQELGLKNLTEILNGGVYVDQNKFLCYADTIHWQDIVRNPWPSNLTLVSTNGSSGCGRCHKSCTGRCWGPTENHCQTLTRTVCAEQCDGRCYGPYVSDCCHRECAGGCSGPKDTDCFACMNFNDSGACVTQCPQTFVYNPTTFQLEHNFNAKYTYGAFCVKKCPHNFVVDSSSCVRACPSSKMEVEENGIKMCKPCTDICPKACDGIGTGSLMSAQTVDSSNIDKFINCTKINGNLIFLVTGIHGDPYNAIEAIDPEKLNVFRTVREITGFLNIQSWPPNMTDFSVFSNLVTIGGRVLYSGLSLLILKQQGITSLQFQSLKEISAGNIYITDNSNLCYYHTINWTTLFSTINQRIVIRDNRKAENCTAEGMVCNHLCSSDGCWGPGPDQCLSCRRFSRGRICIESCNLYDGEFREFENGSICVECDPQCEKMEDGLLTCHGPGPDNCTKCSHFKDGPNCVEKCPDGLQGANSFIFKYADPDRECHPCHPNCTQGCNGPTSHDCIYYPWTGHSTLPQHARTPLIAAGVIGGLFILVIVGLTFAVYVRRKSIKKKRALRRFLETELVEPLTPSGTAPNQAQLRILKETELKRVKVLGSGAFGTVYKGIWVPEGETVKIPVAIKILNETTGPKANVEFMDEALIMASMDHPHLVRLLGVCLSPTIQLVTQLMPHGCLLEYVHEHKDNIGSQLLLNWCVQIAKGMMYLEERRLVHRDLAARNVLVKSPNHVKITDFGLARLLEGDEKEYNADGGKMPIKWMALECIHYRKFTHQSDVWSYGVTIWELMTFGGKPYDGIPTREIPDLLEKGERLPQPPICTIDVYMVMVKCWMIDADSRPKFKELAAEFSRMARDPQRYLVIQGDDRMKLPSPNDSKFFQNLLDEEDLEDMMDAEEYLVPQAFNIPPPIYTSRARIDSNRSEIGHSPPPAYTPMSGNQFVYRDGGFAAEQGVSVPYRAPTSTIPEAPVAQGATAEIFDDSCCNGTLRKPVAPHVQEDSSTQRYSADPTVFAPERSPRGELDEEGYMTPMRDKPKQEYLNPVEENPFVSRRKNGDLQALDNPEYHNASNGPPKAEDEYVNEPLYLNTFANTLGKAEYLKNNILSMPEKAKKAFDNPDYWNHSLPPRSTLQHPDYLQEYSTKYFYKQNGRIRPIVAENPEYLSEFSLKPGTVLPPPPYRHRNTVV

Key:
HER2/p185erbB2 (human) = HER2/p185erbB2 (human) (human); assay: cell-based or functional assay
HER3/p160erbB3 (human) = HER3/p160erbB3 (human) (human); assay: cell-based or functional assay
[1] = biological target: T1, p45, HER4 ligand purified from HepG2 conditioned medium (human, UniProt Q02297, 125I-labeled Bolton-Hunter reagent (in the binding and cross-linking assays)); assay: binding of 125I-p45 to CHO/HER4 cell monolayers, 2 h at 4° C, Scatchard analysis (LIGAND program)
T1 sequence: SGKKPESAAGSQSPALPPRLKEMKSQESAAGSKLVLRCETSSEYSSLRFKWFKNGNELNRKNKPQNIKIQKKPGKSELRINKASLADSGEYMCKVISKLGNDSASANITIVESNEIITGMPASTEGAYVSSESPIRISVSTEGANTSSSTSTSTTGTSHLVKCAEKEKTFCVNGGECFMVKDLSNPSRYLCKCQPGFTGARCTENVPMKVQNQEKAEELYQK

Binder | EC50 of cytotoxicity, H3396 cells (HER2/p185erbB2 (human)) [µg/mL] | EC50 of cytotoxicity, L2987 cells (HER2/p185erbB2 (human)) [µg/mL] | EC50 of cytotoxicity, SK0V3 cells (HER2/p185erbB2 (human)) [µg/mL] | EC50 of cytotoxicity, H3396 cells (HER3/p160erbB3 (human)) [µg/mL] | EC50 of cytotoxicity, L2987 cells (HER3/p160erbB3 (human)) [µg/mL] | EC50 of cytotoxicity, SK0V3 cells (HER3/p160erbB3 (human)) [µg/mL] | Kd [1] [nM]
B1 | > 2 | > 2 | > 2 | > 2 | > 2 | > 2 | –
B2 | – | – | – | – | – | – | ~5
